Measurements taken from patent US20210259954A1, “CILIA-TARGETING NANOPARTICLES” (Chapman University, priority 2019, published 2021).

Key:
p-ERK = test: Immunoblotting of phosphorylated ERK; assay type: cell-based; conditions: PKG inhibition
Procedure: Immunoblotting. […] Samples were kept on ice during sonication to prevent overheating. Samples were then centrifuged at 15,000 rpm for 20 min, and the supernatants were collected and subjected to protein quantification. The PAGE (polyacrylamide gel electrophoresis) on 6-10% SDS gels was performed followed by semi-dry transfer to PVDF membranes using a Bio-Rad Trans-Blot Turbo Transfer System and detection using antibodies against t-ERK (1:1,000), p-ERK (1:1,000), NOS (1:200), and GAPDH (1:2,000) (Cell Signaling Technology). Blots were scanned with both calorimetry to image molecular markers and chemiluminescence to capture the protein signal intensity using a Bio-Rad imager.

[1] = target: Dopamine-receptor type-5 (DR-5) on primary cilia of cultured cells; test: live single-cell fluorescence imaging of perfused fluorescent nanoparticles on the cilium
[2] = target: Dopamine-receptor type-5 (DR-5) on primary cilia of cultured cells; test: fluorescence intensity in non-permeabilized live cells
[3] = target: Dopamine-receptor type-5 (DR-5) on primary cilia of cultured cells; test: live single-cell-single-cilium fluorescence intensity per area

Nc1nc2c(nc(Sc3ccc(Cl)cc3)n2C2OC3COP(O)(=S)OC3C2O)c(=O)[nH]1 (centres unmarked) [Rp-8pCPT-cGMP]
flow-induced effect of NPs on ERK phosphorylation (p-ERK): reduced the flow-induced effect of NPs on ERK phosphorylation

CT-DAu-NPs (cilia-targeted dopaminergized gold nanoparticles carrying DR-5-AF594 antibody and fenoldopam)
binding kinetics to cilia [1]: 0.21 min⁻¹

CT-Fe2O3-NPs (antibody- and fenoldopam-loaded Sunbright-40-OA-Fe2O3-NPs)
ratio of cilia-to-cell body specificity [2]: 158 | proportion of specific binding cilium:cell:background (relative to background = 1) [3]: 17000

CT-PLGA-NPs (cilia-targeted PLGA nanoparticles carrying DR-5-AF594 antibody and fenoldopam)
binding kinetics to cilia [1]: 0.26 min⁻¹
